# Measurements reported in the DeepSol protein solubility set.
# Assay: soluble on expression in E. coli; label from the status in PepcDB or PDB records
row,Sequence,soluble on expression in E. coli
1,MGSDKIHHHHHHMTKIESLGSVKRKAVNISPEDLIKTEFLQPGNNFPLVIKPNVKGVDLQNWAKNNREFLKAELLKYGAILFRDFKVKSIEEFEQIIAAICGEAMEYRYRASPRTQVGGRIYTSTDYPAEQSIFPHNEHAYSPTFPLKIFFFCMSPAAQGGETPIGSCRKVFERIHPDIRDRFIQKKVMYMRNFGDGFGLPWQTVFQTTDKTKVEEYCKINGIEVEWKADNRLRTRQVGPVVLKHPQTGEMVWFNHATFFHVSTLESTIRDSLLTNLPEEDLPTNTYYGDGSAIEPSVLAELRAAYQQEMVTFSWEKGHVLMLDNMLSIHARQPFVPPRKILVGMAEAHTPIPLG,not soluble
2,MKFGPIAIEEAEGAVLAHSTTAGEKRFRKAHRLSAEDISVLKRAGIVQVVAAVLSPDDLGEDAAAQRIAESMRFSGIEARPAATGRVNLHAKASGIFTVDAAMIDAINAVDPAITLATLAQHAPVEKGQMVATVKIIPFAVASTLVDTVVKICAGGEILAVNAYQPVRVGVIQTVLPGIKPSVLDKTLRVTEARLARSGGRLTAERRTPHEIAPVAEAAASLARDNDLVVIFGASAMSDFADVVPAAIERAGGTVVRAGMPVDPGNLLVLGTLGGKRIIGAPGCARSPKENGFDWVLDRLVAGLDVTAKDIAGMGVGGLLMEIPTRPQPREPLPAKSRLKVGIVLLAAGRSSRMGGPNKLLALFDGKPLVRRTAERALGSKASGTIVVTGHQRERVRAALSGLDVTFADNPDFANGLSTSLKAGIAYLPEDTAGAMIVLGDMPGVVSGDLDRLIDAFRKAGGNSVVRASHQGKRGNPVLLPRALFPAIAHLEGDTGARHLVEAEGLDVVDVEIGEGASVDVDTREALEGAGGVLQDLEHHHHHH,not soluble
3,MGSDKIHHHHHHMKKETKHFRALLADNALYYIYSNISAPLSLQELAKEAGVSAHHFHRIFKEEQGQNLYETIKSIRLQKAANLLLSNHYSTISEVAQLCGYSSSASFIKAFKGRFHLTPREWRHGGHRQYAKEILSTSSAAMASQRSFLGLEPTIKKIPAFRAVYLRHKGYNKSIALSWQKLMAWGFEHQISSQARQIGIHHDNPSITPLAECRYIAALEVEEGFRAQGLLGVMEFPPTLCAVFEVQGRYGDVLGLIDYVYHEWLPQSGYEAKTIPAFALYQKNHFLDPLGNFQLDFCLPVGVV,not soluble
4,GAMESEEPVFSLEQNRDDAMAALASTPTFQQTFINSISTQAMDLCKKYNLYPSVMIAQAALESNWGRSELGKAPNYNLFGIKGSYNGKSVTMKTWEYSDSKGWYQINANFAKYPSHKESLEDNAKKLRNGPSWDSSYYKGAWRENAKTYKDATAWLQGRYATDNTYASKLNTLISSYNLTQYD,soluble
5,MLNSWPLAKDLQVLVEIVHSGSFSAAAATLGQTPAFVTKRIQILENTLATTLLNRSARGVALTESGQRCYEHALEILTQYQRLVDDVTQIKTRPEGMIRIGCSFGFGRSHIAPAITELMRNYPELQVHFELFDRQIDLVQDNIDLDIRINDEIPDYYIAHLLTKNKRILCAAPEYLQKYPQPQSLQELSRHDCLVTKERDMTHGIWELGNGQEKKSVKVSGHLSSNSGEIVLQWALEGKGIMLRSEWDVLPFLESGKLVQVLPEYAQSANIWAVYREPLYRSMKLRVCVEFLAAWCQQRLGKPDEGYQVM,soluble
6,MSLAIIPGVEQKPMSSNLESRIDQGTGREPADMVLKGGRFFDLVTGELVASDIAICGDTVVGTCGDYKGRHEIDISGKIVVPGFIDTHLHIESSLVTPHEFDRCVLPYGVTTAICDPHEIANVLGAEGLQFFLDSAMETIMDIRVQLSSCVPATHLETSGADLPIEKLLPFRNHPKVIGLAEFMNFPGVIHKDPVCMAKLEAFQGQHIDGHAPLLSGAALNGYLAAGIRTEHECTSAAEALEKIRKGMHILVREGSVSKDLHALMPIITERLSPYLALCTDDRNPLDIAEQGHLDYMIRTAIASGVEPLAIYRAASISAAKAFGLRDRGLVAPGWRADLVVIDTLQNCKASMVLSGGRLVDDALFATRKPVAPVGLDSVKARPVLASHFGVPVTEGETPVMGVLPGKIITEHRRYKLPTDGNQTTVDLENDIIKVAVIERHGKNGNHANGFVQGFGLKKGAIASTVGHDSHNICVVGVSEDDMALAANRLGDIKGGFVVVEDGRVTGEIALPVAGLMSLEPYETVRDTLHTLRKAAYALGTTLEEPFLQVAFLPLPVIPHLKISDMGMVDVDRFALIEGHHHHHH,soluble
7,MAHHHHHHMTSTLTNSNRINIPAVCRLRERNTNKTVGSGVLVAQGLLLTSATAIPTQSRATHIVATFFEGTKKSAVDVQLQPQRYYFASRYPPEMDYCLISCEEAPLLNVTPVHMALTGKGWAPVEEGDVVLIVEHPIGDVAGTAAVPLDGKATFSSTLSATGDGDFDSVRAPYTEQKRFEEVLRCRGNVSFLKSNGSWRTAGCPAFNEHGQLVGLQSQSRADGEGVVNRILSLISIVKHLFANVQLPHLPQEDVTFEDVWDTWYVTNDITRILAILANFKGKSMAQQVTWRLCELTAKPQLVKSIASNGGIEVILQNLSLFSSDEKLSESGLRALWNVSIGEEAHLATIIKKEGVQTILDVVESFPANETVLEFGAVLLHNIAGCRAAPNFSEAHGARALKALYPGFQQFRESVVLQKFALSFFATLARLNEDFARDLVQQHVIEHITHLVEEKPKQIFLMEIVVGFVAELAQYPQTVELMCSNTPQYAAASMSYLIDLLIHIILEYKDLDSLLVSGNRALWGLGNVPTCRGIILENPRGIDALRISLPPLIASTHR,soluble
8,MERYAAALEEVADGARQQERHYQLLSALQSLVKELPSSFQQRLSYTTLSDLALALLDGTVFEIVQGLLEIQHLTEKSLYNQRLRLQNEHRVLRQALRQKHQEAQQACRPHNLPVVQAAQQRELEAVEHRIREEQRAMDQKIILELDRKVADQQSTLEKAGVAGFYVTTNPQELMLQMNLLELIRKLQQRGCRAGNAALGLGGPWQSPAAQCDQKGSPVPP,soluble
9,MEDISDPEVILEYGVYPAFIKGYTQLKANIEEALLEMSNSGQALDIYQAVQTLNAENMLLNYYESLPFYLNRQSILANMTKALKDAHIREAMAHYKLGEFAHYQDTMLDMVERTIKTF,not soluble
10,MLNEQIFSNARVVTAEQVFIGTVVVRDGLIAEVQTGRSQLSQAQDLEGDFLLPGLVELHTDNLEKHLSPRPGVDWPSMSAVISHDAQIVAAGITTVFDALSIGDINPKGKRMQQLPAMLQAIADANEAGLTRADHLLHLRCEVSHPDTLNVFRDLVGQPLVQLVSVMEHAPGQRQFALESKYREYYMGKYHMSHEEMDHFIVEQVANSTEYADRYRRAIVELCLARGLSIASHDDATMAHVEESAGFGMNIAEFPTTLEAAQGCRQLGMSVLMGAPNIVRGGSHSGNVAAASLARHGLLDILSSDYYPASLLQAAFMLAEQDNDCELPHAINMVSRTPAIAAGLADRGEIRVGLRADLIQARNHAGLPVIDKVWRQGKRVF,not soluble
11,MGSDKIHHHHHHMPRIHFNPDGRRSPTEFEPVTVHHRKPPLDGIISSHRHNWSQLTCPLKGSMRVTTERQVWTVTSFRAVWIPPGVDHELTMVGATEFHAVFIDPQHSPLPANQCCVVDVSPLMRELMQWLGADYGPATDHSRRLTDVLLEEVRRATRRTSALVLPGDRRLKSLCEALMEDPGSTLTLGEWAHRTGASERTLARLFQIELGTTFGAWRQQLRLSCAVDLLRSGLSLSRIAADLGYADSAAFSTMFKRAFGVAPSRYHASSAQAMN,not soluble
12,TPDRHQFPGLANKTYFNFGGQGILPTVALEAITAMYGYLQENGPFSIAANQHIQQLIAQLRQALAETFNVDPNTITITDNVTTGCDIVLWGLDWHQGDEILLTDCEHPGIIAIVQAIAARFGITYRFFPVAATLNQGDAAAVLANHLGPKTRLVILSHLLWNTGQVLPLAEIMAVCRRHQGNYPVRVLVDGAQSAGSLPLDFSRLEVDYYAFTGHAWFAGPAGVGGLYIHGDCLGEINPTYVGWRSITYGAKGEPTGWAEGGKRFEVATSAYPQYAGLLAALQLHQRQGTAEERYQAICQRSEFLWRGLNQLPHVHCLATSAPQAGLVSFTVDSPLGHRAIVQKLEEQRIYLRTIADPDCIRACCHYITDEEEINHLLARLADFGP,soluble
13,DKLYPCQCGKSFTHKSQRDRHMSMHLGLRPYGCGVCGKKFKMKHHLVGHMKIHTGIKPYECNICAKRFMWRDSFHRHVTSCTKSYEAAKAEQNTTEA,soluble
14,MNNNELYVSLDLGTSNTKVIVGEMTGDSLNIIGVGNVPSEGLKKGSIVDIDETVHSIRKAFDQAERMVGFPLRKAIVGVNGNYINIQDTNGVVAVSSENKEIQVEDVRRVMAAAQVVSVPHEQLIVDVIPKQFIVDGRDEITDPKKMLGVRLEVEGTLITGSKTILHNLLRCVERAGIEITDICLQPLAAGSAALSKDEKNLGVALIDIGGGSTTIAVFQNGHLTSTRVIPLGGENITKDISIGLRTSTEEAERVKKQLGHAYYDEASEDEIFEVTVIGTNQKQTFTQQEAANIIEARVEEILEIVSEELRSMGITDLPGGFVLTGGQAAMPGVMSLAQDVLQNNVRVQGPNYIGVRDPQYMTGVGLIQFACRNARIQGRKIGFKMPEEAIQEIAVSSSEEQEQHHHQNEVQQRPKGKQKTQAEHNKQSKMKKLLSMFWE,not soluble
15,MGSDKIHHHHHHMATLLTLLLLFATPIAIRAEEFVWPEPSNAIERKFEKAALTSDNAACSKIGGEILRKGGNSIDASIASMFCLGVVNPQSSGIGGGFLMTYFDQKSGDCYSIDARETAPAAASRDMFLNDSDGSKYGFKAAGTPGEIAGYWHIFKKFGSGKVTWKELVQPSVKLAREGHPVSPYLATVMKVKERHFRLFPSVKASSIKLSMFYRHWINPETNDTYQSGDLLKRPKLAKTLERLGNSPNPVQLFYHGEMAKTLAKEFQEGGGLITEQDLANYKVREYVNSNSNDHFRGTLTMCGGPPPSSFGVTQLIVSAMSKLFPEGHKDDIYNDPKVLHKYIEAMKFAYAQRTLLGDHDFVKGALELSKNLTTPEYTQWVIDRMTDKAQSSKNYGGIAQYVPPDHGTSHVSAMDQYGNGVSATTTINRWFGAAVESSEYGILWNDEMDDFSTPGMENGFGFAPSETNFIEPGKRPMSSMSPMVIFDHVTKKVRMVIGGSGGSKIISALAKSIVRSLIFHDSIKKAIDAPMIHNQFTPDITQLDDEFPINMKNILESEYLQKFRNTTGFEGIIQGVNVLNDGIYACGDYRRKTDQEPSGF,not soluble
16,MKLSQMQAGERGIILALDGLSDTVRKKLMVMGVLPNTEVVLIRRAPMGDPLQVEVRGVSIALRENIAANIDVERAQ,not soluble
17,MEILNQFSQFSPNMEAQGASSIPQPSQDAHEKARQQAENQETAKNGMISQILDQAAMQRLSNLAVAKPEKAQMVEAALINMARRGQLSGKMTDDGLKALMERVSAQTQKATSVKFDRRRNELDSDEELDL,not soluble
18,MKTRISSSRVRFSRYYLRIRESLISIPSRKNQFRFIRKNRFALQASFRSFTENSLTLSFMLLRRSPMKQSRTFLIF,not soluble
19,MAHHHHHHMPLTDEIQLEQLAPTIKGDASWSTGPIYVVCDVGGTNARVGFARAAQHEGSGLHIIYVRFRVTKRDIRQLLEFFDEVLQHLKKNLPYRAGPFLRRVASGAVSVPGPLTNGQLAGPFSNLKGIARLADYPVELFPRGRSALLNDLEAGSYGVLALSNAGMLSDYFKVMWKGTQWDALSEGKPVGSTIGHGRCMVVAPGTGVGSSLIHYVGVSDSYVVLALECGCLSMSWCANEDSKYVQALAGYMASKARVKGLDSTVAPIWEAAANGSGLEFNYAYEKEGPKASAPLKSAPEVAKLAKAGSDPAAVAAMDRLYKNLIGLTAETTMQFLPLTCVLMGDSIVSNSFYFDNPENVKKLQARINEHTMERQLKFLSRTTFLRQVRSVNINLLGCLEFGSQLSNRADQLAPTKSNL,not soluble
